# Laboratory results published in article PMC10745484.
# Target: recombinant Fe-S cluster assembly ATP-binding protein (SufC) (Streptococcus pneumoniae strain D39)
# Assay: SPR; Biacore X100; rSufC immobilised on a CM5 chip (1000 RU); plasminogen or BSA flowed at 6.25 to 100 nM, 25 °C, 100 mM HEPES pH 7.4, 150 mM NaCl, 3 mM EDTA, 0.005% surfactant P20; apparent constants
substance,measurement,value
plasminogen from human plasma (natural protein),Kd,0.0795 µM
same,koff,0.00156 s⁻¹
same,kon,19600 M⁻¹ s⁻¹
